No end group written: not given here.
These binders were tested against gastrin-releasing peptide receptor (GRP-r) (Homo sapiens, UniProt P30550) (assay: radioligand saturation binding on PC-3 cells).
Sequence of gastrin-releasing peptide receptor (GRP-r) (P30550 whole entry): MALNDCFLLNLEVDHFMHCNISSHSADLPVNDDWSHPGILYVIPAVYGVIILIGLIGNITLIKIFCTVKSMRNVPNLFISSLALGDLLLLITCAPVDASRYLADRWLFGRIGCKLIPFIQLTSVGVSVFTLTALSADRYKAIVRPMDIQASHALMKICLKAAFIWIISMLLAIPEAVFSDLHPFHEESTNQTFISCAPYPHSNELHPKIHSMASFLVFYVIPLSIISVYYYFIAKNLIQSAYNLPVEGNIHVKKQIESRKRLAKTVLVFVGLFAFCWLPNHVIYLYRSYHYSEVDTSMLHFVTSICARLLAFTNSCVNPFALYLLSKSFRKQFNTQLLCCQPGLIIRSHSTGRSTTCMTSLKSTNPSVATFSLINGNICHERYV

Row | Binder | Kd
1 | QWAVGHL (not fully specified (C-terminus); also: (βAla)3 spacer, triazole-Lys 99mTc(CO)3 chelate, succinyl-linked shepherdin KHSSG) [[99mTc(CO)3(14)] BBS-shepherdin(79-83) conjugate] | 10.9 nM
2 | QWAVGHL (not fully specified (C-terminus); also: (βAla)3 spacer, triazole-Lys 99mTc(CO)3 chelate, succinyl-linked scrambled shepherdin SGKHS) [[99mTc(CO)3(15)] BBS-scrambled shepherdin(79-83) conjugate] | 11.3 nM
3 | QWAVGHL (not fully specified (N-terminus, C-terminus); also: triazole 99mTc(CO)3 chelate, methyl group in place of shepherdin) [[99mTc(CO)3(16)] BBS reference conjugate] | 5.6 nM

Source: article PMC4078514 (2014)
